Test results reported in patent US6506587B2, “TRF 1 binding protein, methods of use thereof” (The Rockefeller University, priority 1998, dated 2003).
Positions count from the first letter of the chain named. Entries after “also recorded” stand apart in the source; their conditions may differ.

Experiments:
tankyrase = molecular target: T1, tankyrase (Homo sapiens, UniProt O95271); test: PARP assay with baculovirus-derived tankyrase and [32P]NAD+; type: biochemical; settings: 1 mM 3AB; 4 μg tankyrase, without or with 4 μg TRF1; 1.3 μM [32P]NAD+
T1 construct: [His]6 (pFastBac HTb) (N); made in house; host or cells: SF21 insect cells (baculovirus)
T1 sequence (O95271 1-1327): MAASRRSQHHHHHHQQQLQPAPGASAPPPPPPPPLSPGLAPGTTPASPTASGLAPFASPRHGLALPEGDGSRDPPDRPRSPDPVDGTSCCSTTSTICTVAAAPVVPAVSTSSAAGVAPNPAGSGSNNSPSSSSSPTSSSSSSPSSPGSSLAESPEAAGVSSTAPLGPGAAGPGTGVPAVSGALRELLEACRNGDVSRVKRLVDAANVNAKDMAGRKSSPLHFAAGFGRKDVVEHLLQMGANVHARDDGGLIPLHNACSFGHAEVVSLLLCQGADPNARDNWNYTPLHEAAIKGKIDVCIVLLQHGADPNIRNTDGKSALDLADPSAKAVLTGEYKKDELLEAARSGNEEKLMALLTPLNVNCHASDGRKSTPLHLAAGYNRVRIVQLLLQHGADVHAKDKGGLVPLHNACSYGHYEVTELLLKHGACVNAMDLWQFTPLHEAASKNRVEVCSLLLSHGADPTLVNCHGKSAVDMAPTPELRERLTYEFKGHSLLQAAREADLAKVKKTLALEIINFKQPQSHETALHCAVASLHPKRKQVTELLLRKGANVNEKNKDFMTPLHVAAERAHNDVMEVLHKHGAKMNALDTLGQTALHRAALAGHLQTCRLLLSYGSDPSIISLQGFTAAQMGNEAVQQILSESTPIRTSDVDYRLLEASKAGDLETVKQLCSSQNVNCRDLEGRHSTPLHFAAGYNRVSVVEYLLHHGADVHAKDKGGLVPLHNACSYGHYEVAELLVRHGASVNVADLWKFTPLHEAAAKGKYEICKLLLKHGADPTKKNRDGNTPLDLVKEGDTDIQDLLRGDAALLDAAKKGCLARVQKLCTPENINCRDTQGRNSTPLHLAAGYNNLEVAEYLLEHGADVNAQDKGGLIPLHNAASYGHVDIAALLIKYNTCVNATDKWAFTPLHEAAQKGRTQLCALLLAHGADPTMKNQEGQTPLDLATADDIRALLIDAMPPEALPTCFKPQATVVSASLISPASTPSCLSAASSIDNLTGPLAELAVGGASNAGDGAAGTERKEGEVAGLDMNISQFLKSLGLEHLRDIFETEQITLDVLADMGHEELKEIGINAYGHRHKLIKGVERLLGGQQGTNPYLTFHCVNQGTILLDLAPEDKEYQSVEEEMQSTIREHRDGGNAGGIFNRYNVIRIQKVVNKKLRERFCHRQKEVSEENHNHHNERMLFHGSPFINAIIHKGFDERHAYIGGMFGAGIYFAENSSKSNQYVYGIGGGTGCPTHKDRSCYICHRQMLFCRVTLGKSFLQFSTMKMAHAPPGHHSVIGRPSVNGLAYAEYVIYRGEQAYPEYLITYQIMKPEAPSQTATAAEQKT
Description: Reactions containing 4 μg tankyrase (+), without (−) or with (+) 4 μg TRF 1, and 1.3 μM [^32P]NAD^+ were incubated without (−) or with (+) 1 mM 3AB and processed as in FIG. 9A.
PARP assays were performed with baculovirus-derived tankyrase essentially as described in [Simonin et al. 268:8529 (1993)] but without addition of DNA. To make baculovirus-derived protein, an N-terminally [His]6-tagged fusion protein of human tankyrase was generated in the expression vector pFastBac HTb (Gibco BRL, Grand Island) and used to generate a recombinant plasmid in DH10Bac E. coli. The recombinant DNA was used to transfect SF21 insect cells and recombinant virus was isolated and amplified. Protein was purified as described for baculovirus-derived TRF1 [Bianchi et al., EMBO J. 16:1785 (1997)]. Samples containing tankyrase (0-4 μg) and TRF1 (0-4 μg) [Bianchi et al., EMBO J. 16:1785 (1997)] were incubated for 30 minutes at 25° C. in 0.1 ml of assay buffer containing 50 mM Tris-HCl (pH 8.0), 4 mM Mg Cl2, 0.2 mM dithiothreitol (DTT), 1.3 μM [^32P]NAD+ (4 μCi) and varying concentrations of unlabeled NAD+ (0-1 mM). Reactions were stopped by the addition of 20% trichloroacetic acid (TCA). Acid-insoluble proteins were collected by centrifugation, rinsed in 5% TCA, suspended in Laemmli loading buffer, and fractionated on SDS-PAGE. Proteins were visualized by Coomassie-Blue stain and autoradiography. […]

TRF1 [1] = molecular target: T2, TRF1 (Homo sapiens, UniProt P54274); test: Yeast two-hybrid analysis, β-galactosidase assay; type: cell-based; settings: ΔN66-LexA (deletion of the acidic domain of TRF1)
T2 construct: expressed in transfected cells; host or cells: yeast strain L40
T2 sequence (P54274 67-439): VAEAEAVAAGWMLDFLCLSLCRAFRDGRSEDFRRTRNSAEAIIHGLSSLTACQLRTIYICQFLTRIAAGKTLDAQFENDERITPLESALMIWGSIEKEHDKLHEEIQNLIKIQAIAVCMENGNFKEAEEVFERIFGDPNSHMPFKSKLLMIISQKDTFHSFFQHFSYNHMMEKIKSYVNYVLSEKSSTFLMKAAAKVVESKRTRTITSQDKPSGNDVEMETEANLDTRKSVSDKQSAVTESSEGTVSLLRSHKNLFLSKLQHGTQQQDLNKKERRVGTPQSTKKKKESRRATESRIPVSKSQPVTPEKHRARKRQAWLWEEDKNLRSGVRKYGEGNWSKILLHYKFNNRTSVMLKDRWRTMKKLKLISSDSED
Description: (§1) Proteins were immunoprecipitated with an unrelated rabbit serum as a control (C) (lanes 1 and 4), anti-tankyrase antibodies (tankyrase) (lanes 2 and 6) or anti-TRF1 antibody 371 (TRF1) (lanes 3 and 5). Samples were processed, suspended in Laemmli buffer and divided in half. One set was not heated (left panel) and the other was heated at 100° C. for 5 min (right panel). Proteins were fractionated on 10% SDS-PAGE, transferred to nitrocellulose and probed with anti-TRF1 antibody 371 (left panel) or anti-tankyrase antibodies (right panel). […] The values represent an average of three independent transformations. Values<0.01 are indicated by 0.
(§2) TR1L-4 and TR1L-12 were isolated from a human liver two-hybrid cDNA library (Clontech) created in pGad10. The library was screened with human full length TRF1 cDNA fused to LexA (LexA-TRF1) [Bianchi et al., EMBO J., 16:1785-1794 (1997)] in the yeast strain L40 as described [Hollenberg et al., Mol. Cell Biol., 15:3813-3822 (1995)]. Two-hybrid analysis was performed as described by Bianchi et al. [EMBO J., 16:1785-1794 (1997)]. β-galactosidase assays for the two-hybrid analysis was performed as described by Bianchi et al. [EMBO J., 16:1785-1794 (1997)].

TRF1 [2] = molecular target: T3, TRF1 (Homo sapiens, UniProt P54274); test: Yeast two-hybrid analysis, β-galactosidase assay; type: cell-based; settings: with amino-terminal acidic domain of TRF1 (LexAd68-C); 12.0 units with GAD lacking tankyrase sequences; average of three transformations
T3 construct: expressed in transfected cells; host or cells: yeast strain L40
Description: as §1, §2
T3 sequence (P54274 1-67): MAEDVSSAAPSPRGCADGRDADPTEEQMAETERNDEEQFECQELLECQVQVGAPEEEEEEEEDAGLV

TRF1 [3] = test: Gel-shift assay for TTAGGG repeat binding activity of TRF1; type: biochemical
Description: The Gel-shift assay for the TTAGGG repeat binding activity of TRF1 used a duplex [TTAGGG]12 DNA as a probe. Binding reactions contained the components indicated above the lanes. Tankyrase was varied from 2.5 to 200 ng per 20 μl incubation in three-fold dilution steps (triangles). TRF1 was either present at 13 ng (+) or varied from 120 to 13 ng in three-fold dilution steps (triangle). NAD^+ was at 0 (−) or 0.2 mM (+). The asterisks indicate the position of TRF1-containing complexes as determined by antibody super-shift experiments.
Gel-shift assays were performed using an end-labeled 142 bp Hindlll-Asp718 fragment from plasmid pTH12 [Z. Zhong, et al, Mol. Cell. Biol. 12:4834 (1992)] containing 12 tandem TTAGGG repeats. Baculovirus-derived TRF1 (13 to 120 ng) [Bianchi et al. EMBO J. 16:1785 (1997)] was incubated for 30 minutes at room temperature in a 20 μl reaction containing 20 mM Hepes-KOH (pH 7.9), 100 mM KCL, 0.5 mM DTT, 5% glycerol, 0.1% NP40, 100 ng sheared E. coli DNA, 100 ng β-casein, and 1 ng of labeled probe. In some cases, reactions were supplemented with NAD^+ (0.2 mM) and baculovirus-derived human tankyrase (2.5 to 200 ng). Samples were fractionated on a 0.7% agarose gel run in 0.1× TBE (8.9 mM Tris-base, 8.9 mM Boric acid, and 0.2 mM EDTA) at 130 volts for 1 hour at room temperature. Gels were dried onto Whatman DE81 paper and autoradiographed.

Molecule: NC(=O)c1cccc(N)c1 [3AB, 3-aminobenzamide]
- Modification (ADP-ribosylation) of TRF1 and tankyrase by tankyrase (tankyrase): strongly inhibited; also recorded: inhibited

B1: GAD-tankyrase: 10-ANK repeat domain of TR1L-12 (ANK repeats 9-19) fused to the GAL4 activation domain (protein)
chain: FTPLHEAASKNRVEVCSLLLSHGADPTLVNCHGKSAVDMAPTPELRERLTYEFKGHSLLQAAREADLAKVKKTLALEIINFKQPQSHETALHCAVASLHPKRKQVTELLLRKGANVNEKNKDFMTPLHVAAERAHNDVMEVLHKHGAKMNALDTLGQTALHRAALAGHLQTCRLLLSYGSDPSIISLQGFTAAQMGNEAVQQILSESTPIRTSDVDYRLLEASKAGDLETVKQLCSSQNVNCRDLEGRHSTPLHFAAGYNRVSVVEYLLHHGADVHAKDKGGLVPLHNACSYGHYEVAELLVRHGASVNVADLWKFTPLHEAAAKGKYEICKLLLKHGADPTKKNRDGNTPLDLVKEGDTDI
modifications: left off: large carriers
- Interaction with TRF1 lacking the acidic domain (TRF1 [1]): abolished
- β-galactosidase levels (lacZ reporter activation) (TRF1 [2]): 50.4 units

B2: tankyrase: human TRF1-binding protein of SEQ ID NO:2 with ANK repeats, SAM motif and PARP-related domain; recombinant, baculovirus-derived (protein)
chain: T1 sequence (O95271 1-1327) with R802K
- TRF1 DNA binding activity on [TTAGGG]12 probe (TRF1 [3]; NAD+ included (0.2 mM), tankyrase 2.5 to 200 ng per 20 μl, TRF1 13 ng): drastic reduction
- TRF1 DNA binding activity on [TTAGGG]12 probe (TRF1 [3]; NAD+ included (0.2 mM), tankyrase 2.5 to 200 ng per 20 μl, TRF1 13 ng, listed as Tankyrase): inhibition
- TRF1 DNA binding activity on [TTAGGG]12 probe (TRF1 [3]; absence of NAD+, effect also seen with total insect cell protein (non-specific)): slight stimulation
